# Source: patent publication US5994104
# Experiments:
# IL-12 receptor [1] = target: IL-12 receptor
# IL-12 receptor [2] = target: IL-12 receptor; remark: listed apart in the source
substance,measurement,setting,value
recombinant IL-12 (from UniProt P29459) (ligand),"INF-γ production by PHA blasts (ELISA, 36 hours)",IL-12 receptor [1],186 ng/mL
same,"proliferation of PHA blasts (MTT assay, 48 hours); lowest dose with an effect",IL-12 receptor [2],10 pg/mL
